Entries after “also recorded” stand apart in the source; their conditions may differ.
What was measured:
CAV VP2-GST PTPase = assay: Sodium orthovanadate inhibition of PTPase activity; type: biochemical, Chicken anaemia virus
Description: Stock 1 mM […] was made in distilled water and adjusted to pH 10 with sulphuric acid. Once dissolved, stock […] was added to AB and TB buffer at a ratio of 1:1:1 and adjusted to pH 7. Inhibition studies were conducted with 0.1 mM, 0.01 mM and 0.001 mM of sodium orthovanadate. All other reaction conditions were as described above. Assays were with 10 nmol substrate and 9 μg CAV VP2-GST and were in triplicate for each concentration of inhibitor.

[1] = test system: T1, phosphopeptide substrate H-Glu-Asn-Asp-Tyr(PO3H2)-Ile-Asn-Ala-Ser-Leu-OH
T1 sequence: ENDYINASL

[2] = known PTPases, comparison values; cited from earlier work
[3] = biological target: T2, phosphopeptide substrate H-Glu-Asn-Asp-Tyr(PO3H2)-Ile-Asn-Ala-Ser-Leu-OH
T2 chain: ENDYINASL

[4] = test system: peptide substrate ENDY(Pi)INASL; type: biochemical
[5] = test system: peptide substrate ENDY(Pi)INASL; assay: Enzyme pH optimum of CAV VP2-GST PTPase; type: biochemical
Description: Triplicate reactions were set up at pH 4, pH 5, pH 6, pH 7, pH 8 and pH 9. Assays were with 10 nmol substrate and 9 μg CAV VP2-GST and all other reaction conditions were as described above. Prior to addition of the malachite green reagent the pH was neutralised to pH 7 with either sulphuric acid or sodium hydroxide.

[Na+].[Na+].[Na+].[O]=[V]([O-])([O-])[O-] [sodium orthovanadate]
Inhibition of VP2-GST PTPase activity (CAV VP2-GST PTPase): specifically inhibited; also recorded: completely inhibited
Orthovanadate concentration giving maximal inhibition of CAV VP2 activity (as low as) (CAV VP2-GST PTPase): 0.001 mM

TLMV ORF2-GST fusion protein
PTPase activity (steady state) [1]: The steady state activity was equivalent to that demonstrated for CAV VP2

PTP1B: low Mr PTPase cited for comparison [reference compound]
Vmax [2]: 20 000 U/mg min

B1: CAV VP2-GST fusion protein (protein)
chain: MHGNGGQPAAGGSESALSREGQPGPSGAAQGQVISNERSPRRYSTRTINGVQATNKFTAVGNPSLQRDPDWYRWNYSHSIAVWLRECSRSHAKICNCGQFRKHWFQECAGLEDRSTQASLEEAILRPLRVQGKRAKRKLDYHYSQPTPNRKKVYKTVRWQDELADREADFTPSEEDGGTTSSDFDEDINFDIGGDSGIVDELLGRPFTTPAPVRIV
Km (PTPase assay, malachite green, Lineweaver-Burk plot) [3]: Km to be 16.95 µM
Vmax (PTPase assay, malachite green, Lineweaver-Burk plot) [3]: Vmax was estimated to be 14 280 U/mg min
Vo with 0.001 mM orthovanadate, 10 nmol substrate [3]: 0.002
Vo with 0.01 mM orthovanadate, 10 nmol substrate [3]: 0
Vo with 0.1 mM orthovanadate, 10 nmol substrate [3]: 0
Vo without orthovanadate, 10 nmol substrate [3]: 5.61
mean Vo (nmol) at pH 4, 10 nmol substrate [3]: 1.75 nmol
mean Vo (nmol) at pH 5, 10 nmol substrate [3]: 1.47 nmol
mean Vo (nmol) at pH 6, 10 nmol substrate [3]: 5.64 nmol
mean Vo (nmol) at pH 7, 10 nmol substrate [3]: 5.61 nmol
mean Vo (nmol) at pH 8, 10 nmol substrate [3]: 1.83 nmol
mean Vo (nmol) at pH 9, 10 nmol substrate [3]: 0 nmol

B2: VP2-GST: CAV viral protein 2 produced as fusion with glutathione S-transferase in E. coli (protein)
chain: MHGNGGQPAAGGSESALSREGQPGPSGAAQGQVISNERSPRRYSTRTINGVQATNKFTAVGNPSLQRDPDWYRWNYSHSIAVWLRECSRSHAKICNCGQFRKHWFQECAGLEDRSTQASLEEAILRPLRVQGKRAKRKLDYHYSQPTPNRKKVYKTVRWQDELADREADFTPSEEDGGTTSSDFDEDINFDIGGDSGIVDELLGRPFTTPAPVRIV
modifications: left off: a dimerising Fc or GST
notes: CAV viral protein 2 produced as fusion with glutathione S-transferase in E. coli
1/Vmax ([4]; linear regression of double reciprocal plot): 0.060
Vmax ([4]; substrate ENDY(Pi)INASL, Lineweaver-Burk plot, Vo at 1 min): 14 280 U/mg min
mean Vo, PTPase activity ([5]; pH 4, S 10 nmol): 1.746 nmol
mean Vo, PTPase activity ([5]; pH 5, S 10 nmol): 1.474 nmol
mean Vo, PTPase activity ([5]; pH 6, S 10 nmol): 5.636 nmol
mean Vo, PTPase activity ([5]; pH 7, S 10 nmol): 5.612 nmol
mean Vo, PTPase activity ([5]; pH 8, S 10 nmol): 1.829 nmol
mean Vo, PTPase activity ([5]; pH 9, S 10 nmol): 0.000 nmol
pH of optimal PTPase activity ([5]; reactions at pH 4 to pH 9, listed as CAV VP2): 6-7

B3: CD45: high Mr PTPase from human spleen cited for comparison (protein, UniProt P08575 26-1306, looked up)
Receptor-type …: QSPTPSPTGLTTAKMPSVPLSSDPLPTHTTAFSPASTFERENDFSETTTSLSPDNTSTQVSPDSLDNASAFNTTGVSSVQTPHLPTHADSQTPSAGTDTQTFSGSAANAKLNPTPGSNAISDVPGERSTASTFPTDPVSPLTTTLSLAHHSSAALPARTSNTTITANTSDAYLNASETTTLSPSGSAVISTTTIATTPSKPTCDEKYANITVDYLYNKETKLFTAKLNVNENVECGNNTCTNNEVHNLTECKNASVSISHNSCTAPDKTLILDVPPGVEKFQLHDCTQVEKADTTICLKWKNIETFTCDTQNITYRFQCGNMIFDNKEIKLENLEPEHEYKCDSEILYNNHKFTNASKIIKTDFGSPGEPQIIFCRSEAAHQGVITWNPPQRSFHNFTLCYIKETEKDCLNLDKNLIKYDLQNLKPYTKYVLSLHAYIIAKVQRNGSAAMCHFTTKSAPPSQVWNMTVSMTSDNSMHVKCRPPRDRNGPHERYHLEVEAGNTLVRNESHKNCDFRVKDLQYSTDYTFKAYFHNGDYPGEPFILHHSTSYNSKALIAFLAFLIIVTSIALLVVLYKIYDLHKKRSCNLDEQQELVERDDEKQLMNVEPIHADILLETYKRKIADEGRLFLAEFQSIPRVFSKFPIKEARKPFNQNKNRYVDILPYDYNRVELSEINGDAGSNYINASYIDGFKEPRKYIAAQGPRDETVDDFWRMIWEQKATVIVMVTRCEEGNRNKCAEYWPSMEEGTRAFGDVVVKINQHKRCPDYIIQKLNIVNKKEKATGREVTHIQFTSWPDHGVPEDPHLLLKLRRRVNAFSNFFSGPIVVHCSAGVGRTGTYIGIDAMLEGLEAENKVDVYGYVVKLRRQRCLMVQVEAQYILIHQALVEYNQFGETEVNLSELHPYLHNMKKRDPPSEPSPLEAEFQRLPSYRSWRTQHIGNQEENKSKNRNSNVIPYDYNRVPLKHELEMSKESEHDSDESSDDDSDSEEPSKYINASFIMSYWKPEVMIAAQGPLKETIGDFWQMIFQRKVKVIVMLTELKHGDQEICAQYWGEGKQTYGDIEVDLKDTDKSSTYTLRVFELRHSKRKDSRTVYQYQYTNWSVEQLPAEPKELISMIQVVKQKLPQKNSSEGNKHHKSTPLLIHCRDGSQQTGIFCALLNLLESAETEEVVDIFQVVKALRKARPGMVSTFEQYQFLYDVIASTYPAQNGQVKKNNHQEDKIEFDNEVDKVKQDANCVNPLGAPEKLPEAKEQAEGSEPTSGTEGPEHSVNGPASPALNQGS
Vmax [2]: 1 000 U/mg min

Reference: patent publication US7442378B2, “Attenuated circovirus” (The University of Melbourne, priority 2001, dated 2008)
